Assay results taken from patent US20230057263A1 (CYTOMX THERAPEUTICS, published 2023).
No end group written: not given here. *: point of attachment. Biotin = O=C1N[C@H]2[C@H](CS[C@H]2CCCCC(=O)*)N1; code X = not defined here; linker = not defined here

Tests used:
Test in all cases: Luminex bead assay, 1 ug/ml antibody [Cont.]
[1] = molecular target: T1, B X QDGAEEMGGITQTP (reading uncertain)
T1 construct: row 18 of the chart; 14 residues; also called alanine-scan peptide N4A
T1 peptide: {Biotin-code X}-QDGAEEMGGITQTP
Method: (§1) A set of experiments was performed to map the epitope recognized by the anti-CD3ε antibodies. In these experiments, the anti-CD3ε antibodies were assessed for binding to a collection of overlapping 15-mer peptides spanning amino acids 1-27 of human CD3ε protein using a Luminex bead assay. Control CD3 proteins, control peptides, or the test peptides were immobilized on Luminex beads and incubated with a panel of anti-CD3 antibodies. Binding of the anti-CD3 antibodies to the peptide/protein immobilized on the Luminex bead was detected by R-Phycoerythrin conjugated secondary antibody.
(§2) Recombinant CD3 proteins (human CD3d/e heterodimer and cynomolgus CD3-epsilon (Sinobiological)) and control peptides (#p1, #p2, and #p3) were conjugated to Luminex beads using standard EDC/Sulfo-NHS chemistry. The 15-mer test peptides were synthesized as biotinylated peptides at JPT Peptide Technologies Gmbh and were immobilized on streptavidin-conjugated Luminex beads that were made using standard EDC/Sulfo-NHS chemistry and streptavidin (Invitrogen Cat. No. 434301 lot 1626028A). The Luminex beads with immobilized peptides or reagents were incubated with 50 ul of a panel of anti-CD3 antibodies (1 ug/ml) for one hour at room temperature, washed two times, incubated with mixture of anti-human and anti-mouse IgG-RPE (Jackson Immunoresearch 109-116-097 and Southern Biotech 1030-09, respectively) for 30 mins at RT, washed three times, and analyzed in the Luminex instrument to assess the level of bound anti-CD3 antibodies.

[2] = molecular target: T2, B X MGGITQTPYKVSISG (reading uncertain)
T2 construct: row 8 of the chart; also called biotinylated 15-mer, residues 7-21
T2 peptide: {Biotin-code X}-MGGITQTPYKVSISG
Method: as §1, §2

[3] = molecular target: T3, huCD3d/eCHO-E DT1331 (human, UniProt P04234)
T3 construct: recombinant, part of a CD3 delta/epsilon heterodimer; coupled to Luminex beads
T3 sequence (P04234 22-105): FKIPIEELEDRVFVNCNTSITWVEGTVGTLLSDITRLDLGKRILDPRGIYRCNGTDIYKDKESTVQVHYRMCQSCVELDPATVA
Method: as §1, §2

[4] = molecular target: T4, vCD3e #p1 peptide
T4 construct: also called control peptide #p1
Method: as §1, §2

[5] = molecular target: T5, (H2N-KEFSELEQSGYYVCYPRGSNPEDA-OH) vCD3e #p3-BSA (conjugated to BSA)
T5 construct: also called control peptide #p3
T5 peptide: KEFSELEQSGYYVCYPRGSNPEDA
Method: as §1, §2

[6] = molecular target: T6, B X QDGNEEMGGATQTP (reading uncertain)
T6 construct: row 24 of the chart; 14 residues; also called alanine-scan peptide I10A
T6 peptide: {Biotin-code X}-QDGNEEMGGATQTP
Method: as §1, §2

[7] = molecular target: T7, B X TPYKVSISGTTVILT (reading uncertain)
T7 construct: row 14 of the chart; also called biotinylated 15-mer, residues 13-27
T7 peptide: {Biotin-code X}-TPYKVSISGTTVILT
Method: as §1, §2

[8] = molecular target: T8, B X GNEEMGGITQTPYKV (reading uncertain)
T8 construct: row 4 of the chart; also called biotinylated 15-mer, residues 3-17
T8 peptide: {Biotin-code X}-GNEEMGGITQTPYKV
Method: as §1, §2

[9] = molecular target: T9, B X GITQTPYKVSISGTT (reading uncertain)
T9 construct: row 10 of the chart; also called biotinylated 15-mer, residues 9-23
T9 peptide: {Biotin-code X}-GITQTPYKVSISGTT
Method: as §1, §2

[10] = molecular target: T10, B X DGNEEMGGITQTPYK (reading uncertain)
T10 construct: row 3 of the chart; also called biotinylated 15-mer, residues 2-16
T10 peptide: {Biotin-code X}-DGNEEMGGITQTPYK
Method: as §1, §2

[11] = molecular target: T11, B X EEMGGITQTPYKVSI (reading uncertain)
T11 construct: row 6 of the chart; also called biotinylated 15-mer, residues 5-19
T11 peptide: {Biotin-code X}-EEMGGITQTPYKVSI
Method: as §1, §2

[12] = molecular target: T12, B X QDGNAEMGGITQTP (reading uncertain)
T12 construct: row 19 of the chart; 14 residues; also called alanine-scan peptide E5A
T12 peptide: {Biotin-code X}-QDGNAEMGGITQTP
Method: as §1, §2

[13] = molecular target: T13, B X EMGGITQTPYKVSIS (reading uncertain)
T13 construct: row 7 of the chart; also called biotinylated 15-mer, residues 6-20
T13 peptide: {Biotin-code X}-EMGGITQTPYKVSIS
Method: as §1, §2

[14] = molecular target: T14, B X TQTPYKVSISGTTVI (reading uncertain)
T14 construct: row 12 of the chart; also called biotinylated 15-mer, residues 11-25
T14 peptide: {Biotin-code X}-TQTPYKVSISGTTVI
Method: as §1, §2

[15] = molecular target: T15, B X GGITQTPYKVSISGT (reading uncertain)
T15 construct: row 9 of the chart; also called biotinylated 15-mer, residues 8-22
T15 peptide: {Biotin-code X}-GGITQTPYKVSISGT
Method: as §1, §2

[16] = molecular target: T16, biotinylated 15-mer peptide corresponding to the CD3ε N-terminus (human, UniProt P07766 22-36, limits assumed, not fully specified; reading uncertain)
T16 construct: domain: N-terminal 15-mer; Immobilised on streptavidin-conjugated Luminex beads; The text says 'peptides' in the plural, so more than one overlapping N-terminal 15-mer may be meant; also called N-terminal 15-mer; biotinylated N-terminal 15-mer
T16 peptide (looked up): {Biotin-linker}-QDGNEEMGGITQTPY
Method: as §1, §2

[17] = molecular target: T17, B X NEEMGGITQTPYKVS (reading uncertain)
T17 construct: row 5 of the chart; also called biotinylated 15-mer, residues 4-18
T17 peptide: {Biotin-code X}-NEEMGGITQTPYKVS
Method: as §1, §2

[18] = molecular target: T18, B X QDGNEEMGAITQTP (reading uncertain)
T18 construct: row 23 of the chart; 14 residues; also called alanine-scan peptide G9A
T18 peptide: {Biotin-code X}-QDGNEEMGAITQTP
Method: as §1, §2

[19] = molecular target: T19, B X QAGNEEMGGITQTP (reading uncertain)
T19 construct: row 16 of the chart; also called alanine-scan peptide D2A
T19 peptide: {Biotin-code X}-QAGNEEMGGITQTP
Method: as §1, §2

B1: 6d59 (antibody, V domains shown)
VH: QVHLVESGGGVVQPGRSLRLSCAASGFKFRSYGMHWVRQAPGKGLEWVAIIWYDGSKRYYADSVKGRFTISRDNSKNTLYLQMSSLRAEDTAVYYCARDLITGTTDYWGQGTLVTVSS
VL: DVVMTQSPLSLPVTLGQPASISCRSSRSLVYSDGNTHLIWFQQRPGQSPRRLIYRVSNRVSGVPDRFSGSGSGTDFTLKISRVEAEDVGVYYCLQGAHWPYTFGQGTKLEIKR
notes: also called 6d59.1; VCD3-6d59.1
B1 showed a Luminex signal [1] of 48, a Luminex signal [2] of 26.5 and a Luminex signal [3] of 23200. It also gave a Luminex signal [4] of 20300, a Luminex signal [5] of 473 and a Luminex signal [6] of 2630. The Luminex signal [7] was 31, the Luminex signal [8] was 44.5 and the Luminex signal [9] was 43. It also gave a Luminex signal [10] of 404, a Luminex signal [11] of 43 and a Luminex signal [12] of 483. It also gave a Luminex signal [13] of 44.5, a Luminex signal [14] of 47.5 and a Luminex signal [15] of 29.5. It also gave a Luminex signal [16] of 3160, a Luminex signal [17] of 40.5 and a Luminex signal [18] of 2660. For the same binder, the Luminex signal [19] was 45.
